{
  "source": "paper PMC10641069",
  "about": "“Intra- and inter-molecular regulation by intrinsically-disordered regions governs PUF protein RNA binding” (Nature Communications, 2023)",
  "key": {"FBF-2 RBD+CT": {"target": "T1, FBF-2 RBD+CT (Caenorhabditis elegans, UniProt Q09312 164-632)", "T1 sequence": "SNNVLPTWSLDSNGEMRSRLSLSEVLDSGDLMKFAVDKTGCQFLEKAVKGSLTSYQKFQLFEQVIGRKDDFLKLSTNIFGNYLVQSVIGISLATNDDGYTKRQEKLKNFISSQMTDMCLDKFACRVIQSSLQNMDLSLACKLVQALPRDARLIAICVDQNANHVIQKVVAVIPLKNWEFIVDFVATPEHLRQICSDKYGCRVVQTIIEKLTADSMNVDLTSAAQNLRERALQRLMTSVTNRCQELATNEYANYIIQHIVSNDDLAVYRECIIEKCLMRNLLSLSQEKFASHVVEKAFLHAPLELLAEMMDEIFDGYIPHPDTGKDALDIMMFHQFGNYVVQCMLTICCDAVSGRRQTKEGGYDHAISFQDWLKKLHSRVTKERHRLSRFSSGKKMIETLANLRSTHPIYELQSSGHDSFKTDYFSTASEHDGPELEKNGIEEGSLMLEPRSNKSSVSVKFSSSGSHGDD", "test": "SPR; kon 7.1e4 M-1 s-1, koff 4.42e-3 s-1; EMSA: FBF-2 in 20 mM HEPES pH 7.4, 150 mM NaCl, 0.5 mM TCEP mixed 1:1 with 5 nM final RNA in 10 mM HEPES pH 7.4, 0.01% Tween 20, 0.1 mg/ml BSA, 0.1 mg/ml yeast", "conditions": "protein: recombinant; tags: none (His6-SUMO removed with Ulp1); label: 3'-biotin"}, "FBF-2 RBD+CT Y479A": {"target": "T2, FBF-2 RBD+CT Y479A (Caenorhabditis elegans, UniProt Q09312 164-632, Y479A)", "T2 sequence": "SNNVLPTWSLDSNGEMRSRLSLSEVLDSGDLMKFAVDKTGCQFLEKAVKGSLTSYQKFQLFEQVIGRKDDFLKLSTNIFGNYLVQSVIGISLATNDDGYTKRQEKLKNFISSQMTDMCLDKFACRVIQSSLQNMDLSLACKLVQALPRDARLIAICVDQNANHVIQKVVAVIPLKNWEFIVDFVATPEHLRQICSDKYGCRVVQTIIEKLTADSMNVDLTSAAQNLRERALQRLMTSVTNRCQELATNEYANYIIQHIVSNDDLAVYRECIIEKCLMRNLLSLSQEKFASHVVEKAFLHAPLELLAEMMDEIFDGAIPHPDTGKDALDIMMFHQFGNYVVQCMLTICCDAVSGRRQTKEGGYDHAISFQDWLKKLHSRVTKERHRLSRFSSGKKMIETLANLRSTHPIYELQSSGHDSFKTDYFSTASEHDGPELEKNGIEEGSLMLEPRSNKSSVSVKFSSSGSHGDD", "test": "SPR; kon 10.2e4 M-1 s-1, koff 1.18e-3 s-1; EMSA: FBF-2 in 20 mM HEPES pH 7.4, 150 mM NaCl, 0.5 mM TCEP mixed 1:1 with 5 nM final RNA in 10 mM HEPES pH 7.4, 0.01% Tween 20, 0.1 mg/ml BSA, 0.1 mg/ml yeast", "conditions": "protein: recombinant; tags: none (His6-SUMO removed with Ulp1); label: 3'-biotin"}, "FBF-2 RBD+CT Loop6A": {"target": "T3, FBF-2 RBD+CT Loop6A (Caenorhabditis elegans, UniProt Q09312 164-632, E592A;D594A;E597A;E599A;E604A;E605A)", "T3 sequence": "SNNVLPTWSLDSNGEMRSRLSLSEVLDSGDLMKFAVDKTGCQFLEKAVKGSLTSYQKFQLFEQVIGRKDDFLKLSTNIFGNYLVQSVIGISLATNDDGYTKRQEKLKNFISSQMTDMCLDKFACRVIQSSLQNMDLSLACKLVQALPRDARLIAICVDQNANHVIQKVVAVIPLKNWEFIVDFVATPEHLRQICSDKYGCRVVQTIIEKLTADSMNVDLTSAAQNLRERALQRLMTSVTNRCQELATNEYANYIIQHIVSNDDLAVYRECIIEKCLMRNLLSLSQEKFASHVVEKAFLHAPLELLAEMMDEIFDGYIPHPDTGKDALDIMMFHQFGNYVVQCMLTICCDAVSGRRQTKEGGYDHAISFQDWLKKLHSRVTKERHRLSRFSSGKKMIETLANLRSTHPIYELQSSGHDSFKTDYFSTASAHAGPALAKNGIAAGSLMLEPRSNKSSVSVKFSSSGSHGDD", "test": "SPR; kon 10.9e4 M-1 s-1, koff 0.94e-3 s-1; EMSA: FBF-2 in 20 mM HEPES pH 7.4, 150 mM NaCl, 0.5 mM TCEP mixed 1:1 with 5 nM final RNA in 10 mM HEPES pH 7.4, 0.01% Tween 20, 0.1 mg/ml BSA, 0.1 mg/ml yeast", "conditions": "protein: recombinant; tags: none (His6-SUMO removed with Ulp1); label: 3'-biotin"}, "FBF-2 RBD": {"target": "T4, FBF-2 RBD (Caenorhabditis elegans, UniProt Q09312 164-575)", "T4 sequence": "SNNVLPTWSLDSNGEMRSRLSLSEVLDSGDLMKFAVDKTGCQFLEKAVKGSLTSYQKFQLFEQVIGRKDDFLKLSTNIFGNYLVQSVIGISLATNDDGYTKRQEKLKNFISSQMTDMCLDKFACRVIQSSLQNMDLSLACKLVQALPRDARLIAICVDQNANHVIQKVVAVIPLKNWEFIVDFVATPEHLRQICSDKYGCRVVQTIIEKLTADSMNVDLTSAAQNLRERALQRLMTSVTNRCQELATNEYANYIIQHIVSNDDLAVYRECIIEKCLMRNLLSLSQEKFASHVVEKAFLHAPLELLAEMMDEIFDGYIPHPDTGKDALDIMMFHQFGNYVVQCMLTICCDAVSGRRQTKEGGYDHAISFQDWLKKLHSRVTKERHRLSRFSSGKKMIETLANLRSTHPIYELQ", "test": "SPR; kon 13.6e4 M-1 s-1, koff 0.86e-3 s-1; EMSA: FBF-2 in 20 mM HEPES pH 7.4, 150 mM NaCl, 0.5 mM TCEP mixed 1:1 with 5 nM final RNA in 10 mM HEPES pH 7.4, 0.01% Tween 20, 0.1 mg/ml BSA, 0.1 mg/ml yeast", "conditions": "protein: recombinant; tags: none (His6-SUMO removed with TEV protease); label: 3'-biotin"}, "FBF-2 RBD+CT L610A": {"target": "T5, FBF-2 RBD+CT L610A (Caenorhabditis elegans, UniProt Q09312 164-632, L610A)", "T5 sequence": "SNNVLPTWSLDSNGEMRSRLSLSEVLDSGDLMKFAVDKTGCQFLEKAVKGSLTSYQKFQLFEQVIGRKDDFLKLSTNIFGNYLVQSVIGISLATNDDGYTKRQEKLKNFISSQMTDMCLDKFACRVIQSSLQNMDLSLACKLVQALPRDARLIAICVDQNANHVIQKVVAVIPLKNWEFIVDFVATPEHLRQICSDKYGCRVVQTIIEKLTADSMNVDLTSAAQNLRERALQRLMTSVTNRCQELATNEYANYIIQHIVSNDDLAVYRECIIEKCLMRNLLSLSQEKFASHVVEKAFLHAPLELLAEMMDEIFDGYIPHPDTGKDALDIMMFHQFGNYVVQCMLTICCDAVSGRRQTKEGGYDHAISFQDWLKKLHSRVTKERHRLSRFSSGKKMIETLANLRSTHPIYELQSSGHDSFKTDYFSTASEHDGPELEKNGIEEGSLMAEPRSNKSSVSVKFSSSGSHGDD", "test": "SPR; kon 15.5e4 M-1 s-1, koff 1.36e-3 s-1; EMSA: FBF-2 in 20 mM HEPES pH 7.4, 150 mM NaCl, 0.5 mM TCEP mixed 1:1 with 5 nM final RNA in 10 mM HEPES pH 7.4, 0.01% Tween 20, 0.1 mg/ml BSA, 0.1 mg/ml yeast", "conditions": "protein: recombinant; tags: none (His6-SUMO removed with Ulp1); label: 3'-biotin"}},
  "data": [
    {"binder": "AUCAUGUGCCAUACA (ssRNA)", "note": "[gld-1 FBEa RNA (SPR)]", "values": [
      {"measurement": "Kd", "setting": "FBF-2 RBD+CT", "result": "65.1 ± 21.1", "unit": "nM"},
      {"measurement": "Kd", "setting": "FBF-2 RBD+CT Y479A", "result": "12.9 ± 6.4", "unit": "nM"},
      {"measurement": "Kd", "setting": "FBF-2 RBD+CT Loop6A", "result": "9.5 ± 4.2", "unit": "nM"},
      {"measurement": "Kd", "setting": "FBF-2 RBD", "result": "6.6 ± 2.3", "unit": "nM"},
      {"measurement": "Kd", "setting": "FBF-2 RBD+CT L610A", "result": "9.4 ± 3.6", "unit": "nM"}
    ]}
  ]
}
